Results from article PMC7545998, “A snake toxin as a theranostic agent for the type 2 vasopressin receptor” (Theranostics, 2020).
Like-named read-outs stand apart in the source and are kept apart here.

T1: Type 2 vasopressin receptor (V2R) (Rattus norvegicus, UniProt Q00788)
T1 chain: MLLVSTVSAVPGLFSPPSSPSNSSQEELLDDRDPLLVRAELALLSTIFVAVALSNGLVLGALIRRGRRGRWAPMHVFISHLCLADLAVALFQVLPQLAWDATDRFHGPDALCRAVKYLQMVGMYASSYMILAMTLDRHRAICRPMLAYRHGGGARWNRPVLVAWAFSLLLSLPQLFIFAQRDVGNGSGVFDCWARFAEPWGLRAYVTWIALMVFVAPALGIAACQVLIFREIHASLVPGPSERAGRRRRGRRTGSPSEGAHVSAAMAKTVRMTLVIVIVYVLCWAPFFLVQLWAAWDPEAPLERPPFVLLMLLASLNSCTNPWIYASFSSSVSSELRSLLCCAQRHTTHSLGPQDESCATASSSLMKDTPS


How the values were obtained:
[1] = in rats; cited from earlier work
Description: The intrinsic qualities needed to develop a good in vivo contrast agent are high molecular selectivity so as to label only the selected target, a high affinity, so that a low dose of the tracer can be injected, quick blood elimination to reduce background noise and long-term residence in the targeted organ. […] As a peptide, MQ1 is simple to engineer. […] We exemplified this statement by generating the first PET agent specific to V2R and two highly efficient spe ...

[2] = tested on: porcine kidney epithelial cells LLC-pk1; assay: Confocal imaging of endogenous V2R in LLC-pk1 cells; format: cell-based; conditions: 1 µM, 30-min pre-incubation
Method: In cells endogenously expressing V2R, such as porcine kidney epithelial cells LLC-pk1, labeling of V2R with AFDye-488-MQ1 and Cy5.5-MQ1 (100 nM) was performed with either fresh or PFA-fixed cells (Figures 7A and B). […] In the pathophysiological context, three renal cancer cell lines (CAKI-2, ACHN and A498 [38]) known to express V2R were tested. […] The presence of V2R, at the cell membrane level, fluctuated as a function of cell density and the number of cell divisions, whatever the cell line used. […] To our knowledge, this is the first specific ligand labeling of V2R in non-permeabilized cancer cells.
Freshly dissociated CHO, LLC-PK1 or renal cancer cell lines expressing vasopressin receptors were seeded on 12-mm glass coverslips pre-coated with poly-ornithine, cultured for 48 h before incubation in DMEM, 0.2 mg/mL BSA, 25 mM HEPES, pH 7.4 for 1 h at 12°C or 30 min at 22 °C with fluorescent analogues in the absence or presence of non-fluorescent ligands (30-min pre-incubation). After 3 washes with cold PBS, the cells were finally fixed in 4% PFA overnight at 4 °C and mounted with Mowiol. The fluorescent cells were imaged using a Zeiss LSM510 Meta confocal microscope equipped with a ×63 (NA 1.4) oil immersion objective. For excitation, available laser rays were 488 and 633 nm and emission signals were collected in multitracking mode with appropriate band pass filters. […]

[3] = cited from earlier work
Method: Aprotinin and bikunin are two Kunitz peptides. Aprotinin is used clinically in acute pancreatitis, shock syndromes and hyperfibrinolytic hemorrhage. Bikunin is a protease Kunitz inhibitor that inhibits the invasiveness of tumor cells of various histological origins. Aprotinin [54] and bikunin [55] have similar T1/2α of 0.7 and 0.85 h and T1/2β of 7 and 6.4 h, respectively.

[4] = target: T1, Type 2 vasopressin receptor (V2R); assay: [3H]AVP competition radioligand binding

| Molecule | T1/2α [3] [min] | T1/2β [3] [min] | other results |
| --- | --- | --- | --- |
| NC(=O)CC[C@@H]1NC(=O)[C@H](Cc2ccccc2)NC(=O)[C@H](Cc2ccc(O)cc2)NC(=O)[C@@H](N)CSSC[C@@H](C(=O)N2CCC[C@H]2C(=O)N[C@@H](CCCN=C(N)N)C(=O)NCC(N)=O)NC(=O)[C@H](CC(N)=O)NC1=O [AVP, arginine-vasopressin] | – | – | T1/2α [1]: 0.9 min; T1/2β [1]: 8 min |
| CCOc1ccc2c(c1)C1(CCC(OCCN3CCOCC3)CC1)C(=O)N2S(=O)(=O)c1ccc(C(=O)NC(C)(C)C)cc1OC (centres unmarked) [SR121463, reference compound] | – | – | effect on labeling by AFDye-488-MQ1 and Cy5.5-MQ1 [2]: inhibited the labeling |
| Aprotinin [reference compound] | 42 | 420 | – |
| bikunin: protease Kunitz inhibitor that inhibits the invasiveness of tumor cells (protein, UniProt P02760 206-352, looked up, Inter-alpha-trypsin inhibitor light chain) Inter-alpha-trypsin inhibitor …: AVLPQEEEGSGGGQLVTEVTKKEDSCQLGYSAGPCMGMTSRYFYNGTSMACETFQYGGCMGNGNNFVTEKECLQTCRTVAACNLPIVRGPCRAFIQLWAFDAVKGKCVLFPYGGCQGNGNKFYSEKECREYCGVPGDGDEELLRFSN | 51 | 384 | – |
| Mambaquaretin (MQ1) (protein) RPSFCNLPVKPGPCNGFFSAFYYSQKTNKCHSFTYGGCKGNANRFSTIEKCRRTCVG | – | – | Ki [4]: 7.7 nM |
